# Measurements from patent US20230414796A1, “COMBINATION OF PARA-AMINOHIPPURIC ACID (PAH) AND RADIOLABELED COMPLEXES FOR TREATING CANCER” (priority 2020, published 2023).
# Legend:
# [1] = Example 1: body weight of AR42J xenograft CD1 nude mice; settings: mouse, in vivo
# Description: (§1) Body weight and tumor volume were evaluated every two to three days for a period of 57 days after treatment (or until the tumor size limit was reached). The tumor volume was determined by measuring the length, the width and the depth of the tumor with a digital caliper. Tumor volume was calculated by using the following formula: […]
# (§2) The mice were monitored until the individual tumor size reached 1500 mm^3. When this experimental endpoint was reached or after a 57 days period following treatment, mice were euthanized. Mean tumor volume and body weight of AR42J xenograft CD1 nude mice were calculated for each treatment group throughout the duration of the study.
# [2] = Example 2: body weight of AR42J xenograft SWISS mice; design: species or system SWISS nude mice; settings: mouse, in vivo
# Description: 10 min prior to dosing of ^177Lu-DOTATOC, mice of groups 1 and 2 were injected intraperitoneally with 50 μL saline or PAH, respectively.
# as §1, with “46” for “57”
# as §2, with “46” for “57”, “SWISS” for “CD1 nude”
smiles,measurement,setting,value
"C[C@@H](O)[C@@H]1NC(=O)[C@H](CCCCN)NC(=O)[C@@H](Cc2c[nH]c3ccccc23)NC(=O)[C@H](Cc2ccc(O)cc2)NC(=O)[C@@H](NC(=O)[C@@H](Cc2ccccc2)NC(=O)CN2CCN(CC(=O)O)CCN(CC(=O)O)CCN(CC(=O)O)CC2)CSSC[C@@H](C(=O)N[C@H](CO)[C@@H](C)O)NC1=O [^177Lu-DOTATOC, ^177Lu-DOTA-D-Phe-cyclo(Cys-Tyr-D-Trp-Lys-Thr-Cys]-Thr(ol), metal not drawn]",average weight change compared to untreated tumor-bearing control mice,[1],increased similarly
same,physical appearance throughout the study period,[1],maintained a healthy physical appearance
same,average weight increase compared to tumor-bearing control mice,[2],increased slightly more slowly
same,physical appearance throughout the study period,[2],maintained a healthy physical appearance
same,radiotoxicity (suggested by body weight),[2],low radiotoxicity
